Consider 1 molecule from patent US20250340631A1 (HARBOUR BIOMED SHANGHAI, published 2025).

Test [1] deals with T1, human CD3 on Jurkat cells (human, UniProt P07766 23-207).
T1 construct: whole, on cells; on cells it stands in the whole CD3/TCR complex; also called CD3-expressing cells
Description: FACS on Jurkat cells.

Test [2] deals with T2, human CLDN18.2 (human).
T2 construct: the HEK293 line was made with a GenScript plasmid; also called hCLDN18.2
In words: FACS on NUGC4_D8 cells.
Description: (§1) Antibodies were assayed for binding affinity by FACS. Test cells include HEK293/hCLDN18.2, HEK293/hCLDN18.1, NUGC4_D8 and Jurkat cells. […] The cell density was adjusted to 10⁶ cells/mL, and 50 μL of the cell suspension was added to each well of a 96-well plate. Antibodies were diluted to different concentrations with FACS buffer, and 50 μL of the antibody dilution was added to each well of the 96-well plate. After 2 h of incubation at 4° C., the plate was washed twice with FACS buffer. […] After 1 h of incubation at 4° C., the plate was washed twice with FACS buffer. The cells were resuspended in fixative solution, and then the fluorescence of the cells was monitored using an FACS instrument (ACEA NovoCyte).

Test [3] has as its target T2, human CLDN18.2. Description: cell-based or functional assay.
Test [4] concerns the target CLDN18.2 of SNU620 cells (methionine to leucine at amino acid 149) (human, UniProt P56856-2 1-261). Description: cell-based or functional assay.
Test [5] addresses T2, human CLDN18.2. Description: FACS on HEK293/hCLDN18.2 cells.
Description: as §1
For test [6], the target named is Human CD16a(F) (human, UniProt P08637 17-208). In words: BLI (Octet), antibody on FAB2G sensor. (In BLI a coated tip is dipped into the sample, and binding shifts an interference pattern.)
Description: (§2) The binding kinetics between proteins and antibodies was analyzed by the Biolayer Interferometry (BLI) technique using an Octet Red 96e (Fortebio) system. The rotation speed was set at 1000 rpm for the system. […] After equilibrated in the buffer for 120 s, the FAB2G sensor was allowed to bind to 2-fold serially diluted human Fc receptor protein. Finally, the FAB2G sensor was immersed in a 10 mM glycine-hydrochloric acid solution at pH 1.5 for regeneration to elute the proteins bound to the sensor. The affinity assays of antibodies for FcRn were performed under the conditions of both pH 6.0 buffer and pH 7.4 buffer. […] For the interactions of fast binding and fast dissociation, the “steady state” method was selected to fit the data to obtain KD(M) values.
Test [7] deals with T3, Human CD32a(H) (human, UniProt P12318 36-218, limits assumed).
T3 sequence (looked up): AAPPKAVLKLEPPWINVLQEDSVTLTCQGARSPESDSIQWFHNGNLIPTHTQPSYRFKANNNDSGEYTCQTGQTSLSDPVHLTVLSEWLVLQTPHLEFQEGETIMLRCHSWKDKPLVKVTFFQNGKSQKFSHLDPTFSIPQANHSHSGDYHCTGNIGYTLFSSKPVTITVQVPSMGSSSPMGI
In words: BLI (Octet), antibody on FAB2G sensor.
Description: as §2

In test [8] the target is T4, Human CD32b (human, UniProt P31994 46-217, limits assumed).
T4 sequence (looked up): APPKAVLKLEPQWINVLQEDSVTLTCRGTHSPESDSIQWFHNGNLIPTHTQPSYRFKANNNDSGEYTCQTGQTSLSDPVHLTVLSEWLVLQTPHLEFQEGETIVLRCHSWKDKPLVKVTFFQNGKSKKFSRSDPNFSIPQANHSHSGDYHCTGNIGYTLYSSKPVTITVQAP
In words: BLI (Octet), antibody on FAB2G sensor.
Description: as §2

The target in test [9] is T5, Human CD64 (human, UniProt P12314 16-288, limits assumed).
T5 construct: bought recombinant protein
In words: BLI (Octet), antibody on FAB2G sensor, 1:1 global fit.
Description: as §2

The target of test [10] is Human CD16a(V) (human, UniProt P08637 17-208). Description: BLI (Octet), antibody on FAB2G sensor, steady state fit.
Description: as §2
The target in test [11] is Human FcRn (human, UniProt P55899 24-297; P61769 21-119). In words: BLI (Octet), antibody on FAB2G sensor, pH 6.0, 1:1 global fit; pH 6.0; 400-25 nM.
Description: as §2
In test [12] the target is T2, human CLDN18.2. In words: competition FACS on HEK293/hCLDN18.2 cells; competitor 10 nM biotinylated PR000400.
The target in test [13] is T2, human CLDN18.2. In words: competition FACS on HEK293/hCLDN18.2 cells; competitor 200 nM biotinylated PR004549.
Description: This example is to study the binding of anti-human CLDN18.2 bispecific antibodies to the epitope region of a human CLDN18.2 antigen. Competitive binding experiments were performed at the cellular level using human CLDN18.2-overexpressing HEK293/hCLDN18.2 cells. […] The mixture was well mixed and incubated at 4° C. for 30 min. 25 μL of the corresponding serially diluted non-biotinylated anti-human CLDN18.2 antibody was added. The mixture was well mixed and incubated at 4° C. for 1 h. The cells in each well were washed twice with 200 μL of pre-cooled FACS buffer (2% BSA in DPBS) and centrifuged at 500 g at 4° C. for 5 min, and then the supernatant was discarded. A fluorescent secondary antibody (Jackson ImmunoResearch, 016-540-084, 1:500) was added. The mixture was incubated at 4° C. in the absence of light for 1 h. The cells in each well were washed twice with 200 μL of pre-cooled FACS buffer (2% BSA in DPBS) and centrifuged at 500 g at 4° C. for 5 min, and then the supernatant was discarded. Finally, the cells in each well were resuspended in 200 μL of pre-cooled FACS buffer, and the fluorescence signal values were read using a ACEA_NovoCyte.

T5 sequence (P12314 16-288 limits assumed): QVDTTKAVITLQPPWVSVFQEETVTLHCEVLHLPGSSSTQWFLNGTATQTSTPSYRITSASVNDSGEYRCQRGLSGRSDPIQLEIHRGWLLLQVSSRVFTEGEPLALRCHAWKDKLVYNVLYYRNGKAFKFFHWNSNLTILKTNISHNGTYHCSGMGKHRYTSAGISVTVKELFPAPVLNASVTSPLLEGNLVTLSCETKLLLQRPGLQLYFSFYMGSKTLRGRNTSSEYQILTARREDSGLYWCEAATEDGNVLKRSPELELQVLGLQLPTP
Human FcRn, sequence (P55899 24-297 limits assumed, chain 1 of 2): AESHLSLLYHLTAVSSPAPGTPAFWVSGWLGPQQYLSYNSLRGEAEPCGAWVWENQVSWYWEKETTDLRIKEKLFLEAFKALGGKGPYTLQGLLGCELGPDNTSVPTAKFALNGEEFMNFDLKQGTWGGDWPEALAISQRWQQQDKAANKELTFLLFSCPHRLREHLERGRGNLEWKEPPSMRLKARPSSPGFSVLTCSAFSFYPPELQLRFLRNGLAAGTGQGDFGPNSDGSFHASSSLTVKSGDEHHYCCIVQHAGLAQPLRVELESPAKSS
Human FcRn, sequence (P61769 21-119 limits assumed, chain 2 of 2): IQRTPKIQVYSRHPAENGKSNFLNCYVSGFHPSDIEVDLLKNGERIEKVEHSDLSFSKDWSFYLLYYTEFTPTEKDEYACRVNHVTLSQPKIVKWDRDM
Human CD16a(V), sequence (P08637 17-208 F176V limits assumed): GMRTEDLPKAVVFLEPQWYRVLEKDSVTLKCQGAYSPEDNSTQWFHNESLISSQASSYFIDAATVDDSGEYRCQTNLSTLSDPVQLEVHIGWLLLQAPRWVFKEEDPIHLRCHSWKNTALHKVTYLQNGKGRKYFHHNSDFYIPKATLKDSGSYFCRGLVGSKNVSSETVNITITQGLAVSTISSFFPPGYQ
Human CD16a(F), sequence (P08637 17-208 limits assumed): as the sequence (P08637 17-208 F176V limits assumed) above, with V160F counted along it
CLDN18.2 of SNU620 cells (methionine to leucine at amino acid 149), sequence (P56856 other isoform, or with tags, fused parts or gaps limits assumed): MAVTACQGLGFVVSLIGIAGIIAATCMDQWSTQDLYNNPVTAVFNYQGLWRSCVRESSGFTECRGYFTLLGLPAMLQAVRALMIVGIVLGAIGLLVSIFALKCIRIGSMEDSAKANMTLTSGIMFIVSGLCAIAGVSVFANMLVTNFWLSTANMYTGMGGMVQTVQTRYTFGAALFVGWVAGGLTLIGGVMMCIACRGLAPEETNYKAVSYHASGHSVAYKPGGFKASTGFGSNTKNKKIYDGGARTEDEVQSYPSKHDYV
T1 sequence (P07766 23-207): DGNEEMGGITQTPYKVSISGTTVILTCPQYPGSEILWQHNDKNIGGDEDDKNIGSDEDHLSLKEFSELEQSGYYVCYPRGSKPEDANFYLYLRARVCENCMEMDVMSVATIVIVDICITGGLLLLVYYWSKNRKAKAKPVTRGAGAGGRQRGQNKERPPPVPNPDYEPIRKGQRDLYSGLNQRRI

B1: PR005411 (bispecific antibody, human IgG1, lambda, L234A L235A)
chain: EVQLVESGGGLVQPGGSLRLSCAASGFTFSSYWMHWVRQVPGKGLVWVSRISSDASRTIYADSVKGRFTISRDNAKNTLYLQMNSLRAEDTAVYYCARGEDHDILTGYPIRGQGTTVTVSSGGGGSGGGGSGGGGSEVQLVESGGGLVQPGGSLRLSCAASGFTFSSYWMHWVRQVPGKGLVWVSRISSDASRTIYADSVKGRFTISRDNAKNTLYLQMNSLRAEDTAVYYCARGEDHDILTGYPIRGQGTTVTVSSASEPKSSDKTHTCPPCPAPEAAGGPSVFLFPPKPKDTLMISRTPEVTCVVVDVSHEDPEVKFNWYVDGVEVHNAKTKPREEQYNSTYRVVSVLTVLHQDWLNGKEYKCKVSNKALPAPIEKTISKAKGQPREPQVCTLPPSREEMTKNQVSLSCAVKGFYPSDIAVEWESNGQPENNYKTTPPVLDSDGSFFLVSKLTVDKSRWQQGNVFSCSVMHEALHNHYTQKSLSLSPGK
heavy: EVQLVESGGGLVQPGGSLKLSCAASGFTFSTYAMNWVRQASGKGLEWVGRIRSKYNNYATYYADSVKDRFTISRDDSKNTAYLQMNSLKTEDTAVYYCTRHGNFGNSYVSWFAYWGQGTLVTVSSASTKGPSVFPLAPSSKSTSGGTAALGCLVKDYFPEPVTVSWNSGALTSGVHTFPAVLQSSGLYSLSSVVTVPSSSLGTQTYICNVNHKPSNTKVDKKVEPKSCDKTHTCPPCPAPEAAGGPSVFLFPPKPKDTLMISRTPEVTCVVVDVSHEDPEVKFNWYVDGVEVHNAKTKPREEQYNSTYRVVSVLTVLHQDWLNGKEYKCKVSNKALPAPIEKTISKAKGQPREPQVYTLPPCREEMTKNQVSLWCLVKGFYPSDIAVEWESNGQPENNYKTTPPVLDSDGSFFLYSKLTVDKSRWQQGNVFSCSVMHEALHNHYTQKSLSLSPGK
light: QAVVTQEPSLTVSPGGTVTLTCRSSTGAVTTSNYANWVQQKPGQAPRGLIGGTNKRAPWTPARFSGSLLGDKAALTLLGAQPEDEAEYFCALWYSNLWVFGGGTKLTVLGQPKAAPSVTLFPPSSEELQANKATLVCLISDFYPGAVTVAWKADSSPVKAGVETTTPSKQSNNKYAASSYLSLTPEQWKSHRSYSCQVTHEGSTVEKTVAPTECS
notes: structure 1; CD3 Fab from PR003886, CLDN18.2 VH from PR007245; LALA
As to B1, the EC50 (in general, the midpoint of the concentration-response curve) in test [1] was 85.9 nM; in test [2] it was 20.5 nM; in [5] it was 16 nM. In addition, the “TDCC, Titer EC50 (pM), NUGC4_D8” value in test [3] was found to be 11 pM. Also, the “TDCC, Titer EC50 (pM), SNU620” value in test [4] worked out at 38.5 pM. For the same molecule, the binding result in [6], in test [7] and in test [8] was “no binding (tested: 10000-625 nM)” each time. The Kd (as a rule, the constant that tells how readily two partners part at equilibrium) in [9] turned out to be 47.1 nM; in test [10], 2300 nM; in [11] it was 215 nM. The results for the koff in test [9] and in test [11] were 0.0417 s⁻¹ and 0.0644 s⁻¹, respectively. Further, the kon (usually the second-order rate constant of association) in test [9] is 885000 M⁻¹ s⁻¹; in test [11], 300000 M⁻¹ s⁻¹. Also, the IC50 (usually the concentration needed to halve the response being measured) in test [12] was 122 nM; in test [13] it was 74.4 nM. Also, the “Maximum inhibition rate (%)” value in test [12] was determined as 96.2%; in [13] it was 48%.
